Test results taken from patent publication US20180295858.

Target: T1, H-AAPPA-NH2
T1 chain: AAPPA

B1: proline tolerant tripeptidyl peptidase TRI083 (protein)
chain: QEPSSCKGTLVFEGETFNVFQPDCLRTEYSVDGYTPSVKSGSRIGFGSFLNESASFADQALFEKHFNIPSQNFSVVLINGGTDLPQPPSDANDGEANLDAQTILTIAHPLPITEFITAGSPPYFPDPVEPAGTPNENEPYLQYYEFLLSKSNAEIPQVITNSYGDEEQTVPRSYAVRVCNLIGLLGLRGISVLHSSGDEGVGASCVATNSTTPQFNPIFPATCPYVTSVGGTVSFNPEVAWAGSSGGFSYYFSRPWYQQEAVGTYLEKYVSAETKKYYGPYVDFSGRGFPDVAAHSVSPDYPVFQGGELTPSGGTSAASPVVAAIVALLNDARLREGKPTLGFLNPLIYLHASKGFTDITSGQSEGCNGNNTQTGSPLPGAGFIAGAHWNATKGWDPTTGFGVPNLKKLLALVRF
**Q.** For B1, which “hydrolysis of synthetic substrate AAPPA, LC-MS with label free quantification” value is on record?
**A.** The value was “over time is able to degrade the peptide AAPPA (FIG. 5) and generate the product AAP (FIG. 6)”.
